This is an account of results in PMC11500415, “Chemical inhibition of stomatal differentiation by perturbation of the master-regulatory bHLH heterodimer via an ACT-Like domain” (Nature Communications, 2024).

Common to all, as to conditions: both partners purified
Test [1] addresses T1, recombinant SCRM (1-494) (A. thaliana, UniProt Q9LSE2 1-494).
T1 construct: Used in ITC and BLI; In BLI one partner was loaded GST-tagged on anti-GST probes; also called SCREAM; ICE1; source: E. coli BL21, purified (glutathione resin, thrombin, Superdex-200); not shown: GST, N-terminal, cleaved
T1 sequence (looked up): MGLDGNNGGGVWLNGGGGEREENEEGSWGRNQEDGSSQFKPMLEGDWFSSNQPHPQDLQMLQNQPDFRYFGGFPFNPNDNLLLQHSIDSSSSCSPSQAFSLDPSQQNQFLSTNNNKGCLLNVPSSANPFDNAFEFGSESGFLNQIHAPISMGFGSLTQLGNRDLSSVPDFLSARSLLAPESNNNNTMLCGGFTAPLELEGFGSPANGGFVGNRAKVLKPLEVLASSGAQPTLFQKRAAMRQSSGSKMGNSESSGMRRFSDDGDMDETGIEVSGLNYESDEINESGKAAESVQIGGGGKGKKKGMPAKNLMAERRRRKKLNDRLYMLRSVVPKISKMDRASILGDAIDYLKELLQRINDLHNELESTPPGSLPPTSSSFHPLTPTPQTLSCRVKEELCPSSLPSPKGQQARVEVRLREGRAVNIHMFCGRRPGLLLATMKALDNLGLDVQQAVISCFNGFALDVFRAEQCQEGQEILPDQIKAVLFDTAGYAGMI
Description: BLI; Octet Red96, anti-GST probes loaded with 500 nM GST tagged protein, 30 °C, 1× PBS, 2% DMSO, 0.02% Tween20; MUTE pre-incubated with Stomidazolone.

Test [2] addresses T1, recombinant SCRM (1-494). Description: BLI; Octet Red96, anti-GST probes loaded with 500 nM GST tagged protein, 30 °C, 1× PBS, 2% DMSO, 0.02% Tween20; 1:1 model, steady-state analysis; without Stomidazolone.
In test [3] the target is T1, recombinant SCRM (1-494). The experiment in a line: ITC; Malvern PEAQ-ITC, 30 °C, PBS pH 7.4, 2% DMSO, 1 mM DTT; MUTE pre-incubated with Stomidazolone.
Test [4] addresses T1, recombinant SCRM (1-494). Description: ITC; Malvern PEAQ-ITC, 30 °C, PBS pH 7.4, 2% DMSO, 1 mM DTT; without Stomidazolone.

B1: recombinant MUTE (1-202), as used in BLI (natural protein, A. thaliana, UniProt Q9M8K6 1-202, looked up)
chain: MSHIAVERNRRRQMNEHLKSLRSLTPCFYIKRGDQASIIGGVIEFIKELQQLVQVLESKKRRKTLNRPSFPYDHQTIEPSSLGAATTRVPFSRIENVMTTSTFKEVGACCNSPHANVEAKISGSNVVLRVVSRRIVGQLVKIISVLEKLSFQVLHLNISSMEETVLYFFVVKIGLECHLSLEELTLEVQKSFVSDEVIVSTN
notes: also called full-length MUTE; source: E. coli BL21, purified (glutathione resin)
On to B1, for which the Kd was 856 ± 15.1 nM in the test with recombinant SCRM (1-494) [1] and 7.5 ± 1.2 nM with recombinant SCRM (1-494) [2].

B2: recombinant MUTE (1-202), as used in ITC (natural protein, A. thaliana, UniProt Q9M8K6 1-202, looked up)
chain: B1 chain
notes: also called full-length MUTE; source: E. coli BL21, purified (glutathione resin, thrombin, Superdex-200); not shown: GST, N-terminal, cleaved
In the case of B2, the figures for the dissociation constant Kd with recombinant SCRM (1-494) [3] and with recombinant SCRM (1-494) [4] were 900 ± 34.5 nM and 9.5 ± 1.6 nM, respectively.
